Laboratory results from patent US12180485B2, “Repressible control of gene expression” (TRUSTEES OF BOSTON UNIVERSITY, priority 2020, dated 2024).

B1: SEQ ID NO: 800: inducible system polypeptide, probably Table 20 (GID-GAI) (protein)
chain: MAPKKKRKVGIHGVPAAKRDHHHHHHQDKKTMMMNEEDDGNGMDELLAVLGYKVRSSEMADVAQKLEQLEVMMSNVQEDDLSQLATETVHYNPAELYTWLDSMLTDLNSGGSGSGSSGGSGTALADTFSLDENGNKLKKGKHGMRNFIINNVISNKRFHYLIRYGDPAHLHEIAKNEAVVKFVLGRIADIQKKQGQNGKNQIDRYYETCIGKDKGKSVSEKVDALTKIITGMNYDQFDKKRSVIEDTGRENAEREKFKKIISLYLTVIYHILKNIVNINARYVIGFHCVERDAQLYKEKGYDINLKKLEEKGFSSVTKLCAGIDETAPDKRKDVEKEMAERAKESIDSLESANPKLYANYIKYSDEKKAEEFTRQINREKAKTALNAYLRNTKWNVIIREDLLRIDNKTCTLFRNKAVHLEVARYVHAYINDIAEVNSYFQLYHYIMQRIIMNERYEKSSGKVSEYFDAVNDEKKYNDRLLKLLCVPFGYCIPRFKNLSIEALFDRNEAAKFDKEKKKVSGNSSGSGPKKKRKV
B2: SEQ ID NO: 797: inducible system polypeptide, probably Table 20 (GID-GAI) (protein)
chain: MLDLASLILIEKKKSFAKGMGVKSTLVSGSKVYMTTFAEGSDARLEKIVEGDSIRSVNEGEAFSAEMADKNAGYKIGNAKFSHPKGYAVVANNPLYTGPVQQDMLGLKETLEKRYFGESADGNDNICIQVIHNILDIEKILAEYITNAAYAVNNISGLDKDIIGFGKFSTVYTYDEFKDPEHHRAAFNNNDKLINAIKAQYDEFDNFLDNPRLGYFGQAFFSKEGRNYIINYGNECYDILALLSGLRHWVVHNNEEESRISRTWLYNLDKNLDNEYISTLNYLYDRITNELTNSFSKNSAANVNYIAETLGINPAEFAEQYFRFSIMKEQKNLGFNITKLREVMLDRKDMSEIRKNHKVFDSIRTKVYTMMDFVIYRYYIEEDAKVAAANKSLPDNEKSLSEKDIFVINLRGSFNDDQKDALYYDEANRIWRKLENIMHNIKEFRGNKTREYKKKDAPRLPRILPAGRDVSAFSKLMYALTMFLDGKEINDLLTTLINKFDNIQSFLKVMPLIGVNAKFVEEYAFFKDSAKIADELRLIKSFARMGEPIADARRAMYIDAIRILGTNLSGGSGSGSSGGSGTMAASDEVNLIESRTVVPLNTWVLISNFKVAYNILRRPDGTFNRHLAEYLDRKVTANANPVDGVFSFDVLIDRRINLLSRVYRPAYADQEQPPSILDLEKPVDGDIVPVILFFHGGSFAHSSANSAIYDTLCRRLVGLCKCVVVSVNYRRAPENPYPCAYDDGWIALNWVNSRSWLKSKKDSKVHIFLAGDSSGGNIAHNVALRAGESGIDVLGNILLNPMFGGNERTESEKSLDGKYFVTVRDRDWYWKAFLPEGEDREHPACNPFSPRGKSLEGVSFPKSLVVVAGLDLIRDWQLAYAEGLKKAGQEVKLMHLEKATVGFYLLPNNNHFHNVMDEISAFVNAECLDLASLIL

Tested on: mCherry expression in HEK293 FT cells
Experiment: Inducible split RfxCas13d (GIB, RAP, ABA, Dano, GRZ CID domains; NES/NLS variants) mCherry knockdown, leakiness and inducibility
Format: cell-based
Settings: inducible polypeptide systems of Tables 18-22
Outline: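 mCherry knockdown in HEK293 FT cells by split RfxCas13d halves fused to GIB, RAP, ABA, Dano or GRZ dimerization domains, scored with and without inducer. Leakiness score and induced activity were derived per split site; NES/NLS compartmentalization and reversed CID orientation were also tested.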

Molecule	performance in the tested conditions
B1	highest performance
B2	highest performance
